For orientation: stoichiometry N means the number of molecules, sites or subunits per partner or assembly. As usually defined, the Kd is the free concentration of one partner at which half of the binding sites on the other are occupied at equilibrium, for simple one-to-one binding.

The target in data set [1] is Aureochrome 1a from Phaeodactylum tricornutum, full-length protein (PtAu1a_(full)) (Phaeodactylum tricornutum). The data set can be described thus: SEC-MALS; light: pre-incubated at 20°C under continuous blue light (400 µW cm^-2 at 450 nm) for 20 min; 100 µl of 150 µM protein on Superdex 200 10/300 GL in buffer C, RT, column continuously illuminated; monomer-dimer.
For data set [2] the target is unchanged. Kind of data set: SEC-MALS; dark: pre-incubated at 20°C in the dark for 20 min; 100 µl of 150 µM protein on Superdex 200 10/300 GL in buffer C (20 mM HEPES pH 7.5, 100 mM NaCl, 10 mM MgCl2, 5% glycerol), RT, column kept in the dark; monomer-dimer.
Data set [3] deals with PtAu1aLOV, LOV domain of PtAu1a containing its N- and C-terminal α-helical extensions A´α and Jα (Phaeodactylum tricornutum). Kind of data set: MST; dark; Monolith NT.115; 20 nM DY-647-labelled PtAu1aLOV with a 1:2 dilution series of unlabelled PtAu1aLOV; 20 mM HEPES pH 7.5, 100 mM NaCl, 10% glycerol; dimer to monomers.
For data set [4] the target is unchanged. Kind of data set: SEC-MALS; light: pre-incubated at 20°C under continuous blue light (400 µW cm^-2 at 450 nm) for 20 min; 100 µl of 150 µM protein on Superdex 200 10/300 GL in buffer C, RT, column continuously illuminated; monomer-dimer. In general terms: In gel filtration, larger molecules generally elute earlier.
Data set [5] deals with PtAu1a_(bZIP-LOV), truncated PtAu1a variant encompassing the bZIP and LOV domain (Phaeodactylum tricornutum). The description is as above.
The target is the same in data set [6]. The data set can be described thus: SEC-MALS; dark: pre-incubated at 20°C in the dark for 20 min; 100 µl of 150 µM protein on Superdex 200 10/300 GL in buffer C (20 mM HEPES pH 7.5, 100 mM NaCl, 10 mM MgCl2, 5% glycerol), RT, column kept in the dark; monomer-dimer.
Data set [7] relates to Aureochrome 1a full length (PtAu1afull) (Phaeodactylum tricornutum). Kind of data set: EMSA. Conditions: 10 mM MgCl2, EMSA: 50 nM DNA in buffer C (20 mM HEPES pH 7.5, 100 mM NaCl, 10 mM MgCl2, 5% glycerol) plus 5% glycerol, 20 min at RT, dark or blue light (450 nm), 10% TGE ….

As for “Aureochrome 1a from Phaeodactylum tricornutum, full-length protein (PtAu1a_(full)) (natural protein)”, the stoichiometry N in data set [1] and in data set [2] was 2 each time.
With “PtAu1aLOV, LOV domain of PtAu1a containing its N- and C-terminal α-helical extensions A´α and Jα (domain or fragment)”, the Kd in data set [3] came out at 13.6 µM. The substance also registered a stoichiometry N in data set [4] of 2.
On to “PtAu1a_(bZIP-LOV), truncated PtAu1a variant encompassing the bZIP and LOV domain (domain or fragment)”, for which the stoichiometry N in data set [5] and in data set [6] was 2 in each case.
Turning to “TGTAGCGTCTGACGTGGTTCCCAC (double strand) [24-bp dsCYC2 promoter probe]”, the K half in data set [7] (continuous blue light, EC50, Hill coefficient 1.65) is 90 nM; in data set [7] (dark, EC50, Hill coefficient 1.35) it was 860 nM.

The values are drawn from paper PMC4721966.
